± gives the uncertainty stated by the source.

B1: Histone-lysine N-methyltransferase SETD2, residues 2382 to 2430; numbered along this chain, Q9BYW2 (parent)
chain: SPPKPKTIVLPPNWKTARDPEGKIYYYHVITRQTQWDPPTWESPGDDAS

Variants of B1 are the subject of this data set. In words: abundance fitness (aPCA) (normalised: wild type 0, dead -1); higher = more abundant; growth selection in yeast, the domain comes from the species named. The following applies: Homo sapiens.
SPPKPKTIVLPPNWKTARDPEGKIYYYHVITRQTQWDPPTWESPGDDAR [S49R]: the abundance fitness is -0.158 ± 0.11.

Take SPPKPKTIVLPPNWKTARDPEGKIYYYHVITRQTQWDPPTWESPGDDAY [S49Y]: the abundance fitness is -0.194 ± 0.067.

In the case of SPPKPKTIVLPPNWKTARDPEGKIYYYHVITRQTQWDPPTWESPGDDAI [S49I], the abundance fitness was -0.088 ± 0.048.

Regarding SPPKPKTIVLPPNWKTARDPEGKIYYYHVITRQTQWDPPTWESPGDDAC [S49C], the abundance fitness was -0.467 ± 0.14.

On to SPPKPKTIVLPPNWKTARDPEGKIYYYHVITRQTQWDPPTWESPGDDAM [S49M], for which the abundance fitness was -0.154 ± 0.33.

Take SPPKPKTIVLPPNWKTARDPEGKIYYYHVITRQTQWDPPTWESPGDDAQ [S49Q]: the abundance fitness is -0.031 ± 0.2.

As to SPPKPKTIVLPPNWKTARDPEGKIYYYHVITRQTQWDPPTWESPGDDAN [S49N], the abundance fitness is -0.696 ± 0.2.

In the case of SPPKPKTIVLPPNWKTARDPEGKIYYYHVITRQTQWDPPTWESPGDDAA [S49A], the abundance fitness is -0.418 ± 0.093.

Turning to SPPKPKTIVLPPNWKTARDPEGKIYYYHVITRQTQWDPPTWESPGDDAE [S49E], the abundance fitness was -0.279 ± 0.19.

With SPPKPKTIVLPPNWKTARDPEGKIYYYHVITRQTQWDPPTWESPGDDAV [S49V], the abundance fitness was -0.62 ± 0.19.

Turning to SPPKPKTIVLPPNWKTARDPEGKIYYYHVITRQTQWDPPTWESPGDDAF [S49F], the abundance fitness was -0.391 ± 0.099.

On to SPPKPKTIVLPPNWKTARDPEGKIYYYHVITRQTQWDPPTWESPGDDAP [S49P], for which the abundance fitness came to 0.043 ± 0.05.

In the case of SPPKPKTIVLPPNWKTARDPEGKIYYYHVITRQTQWDPPTWESPGDDAT [S49T], the abundance fitness was -0.013 ± 0.045.

Consider SPPKPKTIVLPPNWKTARDPEGKIYYYHVITRQTQWDPPTWESPGLDAS [D46L], for which the abundance fitness was -0.053 ± 0.033.

SPPKPKTIVLPPNWKTARDPEGKIYYYHVITRQTQWDPPTWESPGSDAS [D46S]: the abundance fitness is -0.167 ± 0.039.

As for SPPKPKTIVLPPNWKTARDPEGKIYYYHVITRQTQWDPPTWESPGVDAS [D46V], the abundance fitness is -0.064 ± 0.042.

In the case of SPPKPKTIVLPPNWKTARDPEGKIYYYHVITRQTQWDPPTWESPGQDAS [D46Q], the abundance fitness is -0.358 ± 0.1.

Consider SPPKPKTIVLPPNWKTARDPEGKIYYYHVITRQTQWDPPTWESPGPDAS [D46P], for which the abundance fitness was -0.069 ± 0.044.

For SPPKPKTIVLPPNWKTARDPEGKIYYYHVITRQTQWDPPTWESPGWDAS [D46W], the abundance fitness was -0.358 ± 0.084.

SPPKPKTIVLPPNWKTARDPEGKIYYYHVITRQTQWDPPTWESPGEDAS [D46E]: the abundance fitness is -0.117 ± 0.068.

As for SPPKPKTIVLPPNWKTARDPEGKIYYYHVITRQTQWDPPTWESPGHDAS [D46H], the abundance fitness worked out at 0.119 ± 0.1.

Regarding SPPKPKTIVLPPNWKTARDPEGKIYYYHVITRQTQWDPPTWESPGIDAS [D46I], the abundance fitness was -0.164 ± 0.066.

Consider SPPKPKTIVLPPNWKTARDPEGKIYYYHVITRQTQWDPPTWESPGCDAS [D46C], for which the abundance fitness was -0.31 ± 0.042.

For SPPKPKTIVLPPNWKTARDPEGKIYYYHVITRQTQWDPPTWESPGNDAS [D46N], the abundance fitness was -0.11 ± 0.043.

On to SPPKPKTIVLPPNWKTARDPEGKIYYYHVITRQTQWDPPTWESPGRDAS [D46R], for which the abundance fitness is -0.286 ± 0.046.

Consider SPPKPKTIVLPPNWKTARDPEGKIYYYHVITRQTQWDPPTWESPGMDAS [D46M], for which the abundance fitness was -0.297 ± 0.092.

SPPKPKTIVLPPNWKTARDPEGKIYYYHVITRQTQWDPPTWESPGYDAS [D46Y]: the abundance fitness is -0.436 ± 0.14.

On to SPPKPKTIVLPPNWKTARDPEGKIYYYHVITRQTQWDPPTWESPGKDAS [D46K], for which the abundance fitness was -0.166 ± 0.093.

Turning to SPPKPKTIVLPPNWKTARDPEGKIYYYHVITRQTQWDPPTWESPGTDAS [D46T], the abundance fitness is -0.292 ± 0.087.

For SPPKPKTIVLPPNWKTARDPEGKIYYYHVITRQTQWDPPTWESPGGDAS [D46G], the abundance fitness is -0.119 ± 0.032.

Take SPPKPKTIVLPPNWKTARDPEGKIYYYHVITRQTQWDPPTWESPGFDAS [D46F]: the abundance fitness was -0.361 ± 0.13.

On to SPPKPKTIVLPPNWKTARDPEGKIYYYHVITRQTQWDPPTWESPGDMAS [D47M], for which the abundance fitness is -0.226 ± 0.077.

On to SPPKPKTIVLPPNWKTARDPEGKIYYYHVITRQTQWDPPTWESPGDCAS [D47C], for which the abundance fitness is -0.206 ± 0.072.

Regarding SPPKPKTIVLPPNWKTARDPEGKIYYYHVITRQTQWDPPTWESPGDQAS [D47Q], the abundance fitness came out at 0.257 ± 0.064.

Regarding SPPKPKTIVLPPNWKTARDPEGKIYYYHVITRQTQWDPPTWESPGDTAS [D47T], the abundance fitness was -0.032 ± 0.059.

Consider SPPKPKTIVLPPNWKTARDPEGKIYYYHVITRQTQWDPPTWESPGDFAS [D47F], for which the abundance fitness is -0.443 ± 0.1.

On to SPPKPKTIVLPPNWKTARDPEGKIYYYHVITRQTQWDPPTWESPGDAAS [D47A], for which the abundance fitness is -0.051 ± 0.033.

For SPPKPKTIVLPPNWKTARDPEGKIYYYHVITRQTQWDPPTWESPGDWAS [D47W], the abundance fitness was -0.288 ± 0.068.

Take SPPKPKTIVLPPNWKTARDPEGKIYYYHVITRQTQWDPPTWESPGDSAS [D47S]: the abundance fitness turned out to be 0.037 ± 0.056.

For SPPKPKTIVLPPNWKTARDPEGKIYYYHVITRQTQWDPPTWESPGDPAS [D47P], the abundance fitness was -0.2 ± 0.078.

With SPPKPKTIVLPPNWKTARDPEGKIYYYHVITRQTQWDPPTWESPGDHAS [D47H], the abundance fitness is -0.028 ± 0.042.

Take SPPKPKTIVLPPNWKTARDPEGKIYYYHVITRQTQWDPPTWESPGDGAS [D47G]: the abundance fitness is -0.002 ± 0.032.

As for SPPKPKTIVLPPNWKTARDPEGKIYYYHVITRQTQWDPPTWESPGDNAS [D47N], the abundance fitness is -0.241 ± 0.062.

SPPKPKTIVLPPNWKTARDPEGKIYYYHVITRQTQWDPPTWESPGDEAS [D47E]: the abundance fitness was 0.035 ± 0.051.

For the variant SPPKPKTIVLPPNWKTARDPEGKIYYYHVITRQTQWDPPTWESPGDRAS [D47R], the abundance fitness is -0.146 ± 0.041.

For SPPKPKTIVLPPNWKTARDPEGKIYYYHVITRQTQWDPPTWESPGDLAS [D47L], the abundance fitness was -0.107 ± 0.042.

For SPPKPKTIVLPPNWKTARDPEGKIYYYHVITRQTQWDPPTWESPGDKAS [D47K], the abundance fitness is -0.16 ± 0.054.

On to SPPKPKTIVLPPNWKTARDPEGKIYYYHVITRQTQWDPPTWESPGDIAS [D47I], for which the abundance fitness was -0.337 ± 0.075.

Consider SPPKPKTIVLPPNWKTARDPEGKIYYYHVITRQTQWDPPTWESPGDVAS [D47V], for which the abundance fitness is -0.063 ± 0.037.

Regarding SPPKPKTIVLPPNWKTARDPEGKIYYYHVITRQTQWDPPTWESPGDYAS [D47Y], the abundance fitness was -0.023 ± 0.054.

In the case of SPPKPKTIVLPPNWKTARDPEGKIYYYHVITRQTQWDPPTWESPGDDIS [A48I], the abundance fitness turned out to be 0.095 ± 0.16.
